B1: IR1-M_ΔSIM domain of RanBP2 (domain or fragment, UniProt P49792 2637-2710, looked up)
chain: ELTPTAEQKALATKLKLPPTFFCYKNRPDYVSEEEEDDEDFETAVKKLNGKLYLDGSEKCRPLEENTADNEKEC
B2: IR1-M domain (internal repeat 1 and M) of RanBP2 (domain or fragment, UniProt P49792 2629-2710, looked up)
chain: DDDVLIVYELTPTAEQKALATKLKLPPTFFCYKNRPDYVSEEEEDDEDFETAVKKLNGKLYLDGSEKCRPLEENTADNEKEC

Biological target: Ubc9 (human, UniProt P63279 1-158)
Test: pull-down

Sequence of Ubc9 (P63279 whole entry): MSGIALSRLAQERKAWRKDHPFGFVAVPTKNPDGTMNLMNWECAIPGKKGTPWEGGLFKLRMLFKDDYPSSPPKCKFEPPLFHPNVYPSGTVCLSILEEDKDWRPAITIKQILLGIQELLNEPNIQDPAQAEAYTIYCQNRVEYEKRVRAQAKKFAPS

Binder	binding result
B1	binds
B2	binds

Reference: PMC3677566 (Biochemistry, 2011)
